Experimental data taken from patent US20150074844A1 (PURDUE RESEARCH FOUNDATION, published 2015).

Experiments:
PYL8-nLUC = biological target: T1, PYL8-nLUC (Arabidopsis thaliana, UniProt Q9FGM1 1-188); experiment: firefly luciferase complementation in protoplasts (weaker group)
T1 construct: LUC complementation assay in protoplasts; also called PYLs-nLUC; not shown: N-terminal domain of firefly luciferase
T1 sequence: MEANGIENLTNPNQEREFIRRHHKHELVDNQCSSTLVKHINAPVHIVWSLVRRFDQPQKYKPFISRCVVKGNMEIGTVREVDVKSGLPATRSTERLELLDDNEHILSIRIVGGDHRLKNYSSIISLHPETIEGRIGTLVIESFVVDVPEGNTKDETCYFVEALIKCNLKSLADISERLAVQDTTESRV
Description: (§1) To further characterize the interactions between PYL13 and PYLs in vivo, their interactions in protoplasts were examined by the firefly luciferase (LUC) complementation assay. PYL13 was fused to the C-terminal domain of LUC (PYL13-cLUC), and PYLs were fused to the N-terminal domain of LUC (PYLs-nLUC), and co-expressed in protoplasts. After transfection, protoplasts were incubated overnight under light at room temperature, and the LUC activities in living protoplasts were measured. Error bars indicate s.e.m. (n=6). […] PYL13 binds more strongly to PYR1, PYL1-5, PYL7, and PYL10-11 than to PYL6, PYL8-9, or PYL13 (FIG. 5B).

PYL6-nLUC = biological target: T2, PYL6-nLUC (Arabidopsis thaliana, UniProt Q8S8E3 1-215); experiment: as above
T2 construct: LUC complementation assay in protoplasts; also called PYLs-nLUC; not shown: N-terminal domain of firefly luciferase
T2 sequence: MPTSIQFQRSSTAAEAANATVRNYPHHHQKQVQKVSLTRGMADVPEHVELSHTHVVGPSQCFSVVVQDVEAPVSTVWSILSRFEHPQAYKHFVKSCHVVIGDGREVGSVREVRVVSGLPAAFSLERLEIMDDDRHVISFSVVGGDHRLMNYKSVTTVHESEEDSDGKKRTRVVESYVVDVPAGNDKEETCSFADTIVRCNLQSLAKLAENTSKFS
Description: as §1

PYL5-nLUC = biological target: T3, PYL5-nLUC (Arabidopsis thaliana, UniProt Q9FLB1 1-203); experiment: firefly luciferase complementation in protoplasts (stronger group)
T3 construct: LUC complementation assay in protoplasts; also called PYLs-nLUC; not shown: N-terminal domain of firefly luciferase
T3 sequence: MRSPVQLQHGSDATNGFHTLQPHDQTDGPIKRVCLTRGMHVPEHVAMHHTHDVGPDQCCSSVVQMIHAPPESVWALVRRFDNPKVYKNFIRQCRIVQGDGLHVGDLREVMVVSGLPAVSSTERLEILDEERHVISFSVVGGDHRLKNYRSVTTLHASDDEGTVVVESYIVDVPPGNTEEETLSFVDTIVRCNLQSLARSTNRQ
Description: as §1

PYL3-nLUC = biological target: T4, PYL3-nLUC (Arabidopsis thaliana, UniProt Q9SSM7 1-209); experiment: as above
T4 construct: LUC complementation assay in protoplasts; also called PYLs-nLUC; not shown: N-terminal domain of firefly luciferase
T4 sequence: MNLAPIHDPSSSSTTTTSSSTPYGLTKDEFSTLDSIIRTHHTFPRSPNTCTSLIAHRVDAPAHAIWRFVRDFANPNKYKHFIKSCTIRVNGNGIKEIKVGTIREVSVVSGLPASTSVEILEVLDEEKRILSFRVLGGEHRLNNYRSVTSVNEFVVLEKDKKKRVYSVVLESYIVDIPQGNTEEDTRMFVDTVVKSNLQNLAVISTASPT
Description: as §1

PYL7-nLUC = biological target: T5, PYL7-nLUC (Arabidopsis thaliana, UniProt Q1ECF1 1-211); experiment: as above
T5 construct: LUC complementation assay in protoplasts; also called PYLs-nLUC; not shown: N-terminal domain of firefly luciferase
T5 sequence: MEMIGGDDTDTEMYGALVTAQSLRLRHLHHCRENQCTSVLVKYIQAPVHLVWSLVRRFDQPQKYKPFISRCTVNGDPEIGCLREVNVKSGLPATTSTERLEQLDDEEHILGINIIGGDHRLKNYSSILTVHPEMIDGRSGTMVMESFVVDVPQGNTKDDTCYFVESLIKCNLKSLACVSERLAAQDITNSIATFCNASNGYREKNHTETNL
Description: as §1

PYL10-nLUC = biological target: T6, PYL10-nLUC (Arabidopsis thaliana, UniProt Q8H1R0 1-183); experiment: as above
T6 construct: LUC complementation assay in protoplasts; also called PYLs-nLUC; not shown: N-terminal domain of firefly luciferase
T6 sequence: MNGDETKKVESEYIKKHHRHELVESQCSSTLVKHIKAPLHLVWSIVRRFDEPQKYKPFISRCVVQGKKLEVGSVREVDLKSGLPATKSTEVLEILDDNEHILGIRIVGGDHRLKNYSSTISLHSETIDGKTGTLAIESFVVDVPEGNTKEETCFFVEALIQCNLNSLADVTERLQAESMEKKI
Description: as §1

PYL4-nLUC = biological target: T7, PYL4-nLUC (Arabidopsis thaliana, UniProt O80920 1-207); experiment: as above
T7 construct: LUC complementation assay in protoplasts; also called PYLs-nLUC; not shown: N-terminal domain of firefly luciferase
T7 sequence: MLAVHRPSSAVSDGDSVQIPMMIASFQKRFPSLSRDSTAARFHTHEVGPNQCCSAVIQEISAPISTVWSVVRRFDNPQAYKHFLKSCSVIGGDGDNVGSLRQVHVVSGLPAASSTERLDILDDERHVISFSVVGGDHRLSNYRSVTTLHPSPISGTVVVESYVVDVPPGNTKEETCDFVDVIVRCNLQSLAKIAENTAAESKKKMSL
Description: as §1

PYR1-nLUC = biological target: T8, PYR1-nLUC (Arabidopsis thaliana, UniProt O49686 1-191); experiment: as above
T8 construct: LUC complementation assay in protoplasts; also called PYLs-nLUC; not shown: N-terminal domain of firefly luciferase
T8 sequence: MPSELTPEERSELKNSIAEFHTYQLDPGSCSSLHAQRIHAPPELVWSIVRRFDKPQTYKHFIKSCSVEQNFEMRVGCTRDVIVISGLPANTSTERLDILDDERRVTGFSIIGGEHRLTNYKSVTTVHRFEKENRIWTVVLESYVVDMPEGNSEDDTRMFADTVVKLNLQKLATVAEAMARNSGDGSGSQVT
Description: as §1

PYL13-nLUC = biological target: T9, PYL13-nLUC (Arabidopsis thaliana, UniProt Q9SN51 1-164); experiment: firefly luciferase complementation in protoplasts (weaker group; PYL13 with itself)
T9 construct: LUC complementation assay in protoplasts; also called PYL13 fused to the N-terminal domain of LUC; not shown: N-terminal domain of firefly luciferase
T9 sequence: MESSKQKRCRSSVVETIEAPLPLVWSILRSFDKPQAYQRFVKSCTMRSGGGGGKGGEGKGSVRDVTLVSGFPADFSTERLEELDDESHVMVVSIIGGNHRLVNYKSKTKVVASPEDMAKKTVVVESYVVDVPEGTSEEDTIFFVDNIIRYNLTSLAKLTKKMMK
Description: as §1

[1] = biological target: T10, HAI2 fused to the GAL4-activating domain (AD) (Arabidopsis, UniProt Q9LNW3 1-442); experiment: yeast two-hybrid, growth on media lacking His and His/Ade, with and without ABA (ABA-independent)
T10 construct: Yeast two-hybrid construct
T10 sequence (looked up): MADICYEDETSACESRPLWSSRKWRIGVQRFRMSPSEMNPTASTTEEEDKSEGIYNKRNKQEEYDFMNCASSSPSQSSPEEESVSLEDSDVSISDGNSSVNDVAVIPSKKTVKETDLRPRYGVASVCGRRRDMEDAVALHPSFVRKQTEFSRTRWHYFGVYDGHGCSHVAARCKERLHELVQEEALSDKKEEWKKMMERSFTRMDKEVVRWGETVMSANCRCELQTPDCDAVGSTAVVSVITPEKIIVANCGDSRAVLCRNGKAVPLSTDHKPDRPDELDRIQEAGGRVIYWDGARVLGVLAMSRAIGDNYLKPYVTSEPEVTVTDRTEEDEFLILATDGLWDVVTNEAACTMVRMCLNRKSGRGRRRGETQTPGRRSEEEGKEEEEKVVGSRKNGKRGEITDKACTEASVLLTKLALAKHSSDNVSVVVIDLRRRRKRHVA
Description: To investigate how PYL13 may function in plants, the interaction between PYL13 and clade A PP2Cs in yeast two-hybrid assays was examined, as shown in FIG. 3. […] PYL13 binds strongly with ABI1, ABI2, PP2CA, and HAI2 but weakly with HAB1 and HAI1 (FIG. 3A). […] PYL13 fused to the GAL4-DNA-binding domain (BD) was used as […]. Interaction was determined by growth assay on media lacking His and His/Ade in the presence and absence of ABA. Dilutions (10⁻¹, 10⁻², and 10⁻³) of saturated cultures were spotted onto the plates, which were photographed after 5 days.

Measured: binding result

B1: PYL13-cLUC (other)
chain: MESSKQKRCRSSVVETIEAPLPLVWSILRSFDKPQAYQRFVKSCTMRSGGGGGKGGEGKGSVRDVTLVSGFPADFSTERLEELDDESHVMVVSIIGGNHRLVNYKSKTKVVASPEDMAKKTVVVESYVVDVPEGTSEEDTIFFVDNIIRYNLTSLAKLTKKMMK
notes: LUC complementation assay in protoplasts; also called PYL13 fused to the C-terminal domain of LUC; not shown: C-terminal domain of firefly luciferase
not listed: [1]
binds: all other assays above

B2: PYL13 fused to the GAL4-DNA-binding domain (BD) (other, not shown: small tags and cut ends)
chain: MESSKQKRCRSSVVETIEAPLPLVWSILRSFDKPQAYQRFVKSCTMRSGGGGGKGGEGKGSVRDVTLVSGFPADFSTERLEELDDESHVMVVSIIGGNHRLVNYKSKTKVVASPEDMAKKTVVVESYVVDVPEGTSEEDTIFFVDNIIRYNLTSLAKLTKKMMK
notes: also called BD-PYL13
binds: [1]
